First the molecules themselves.
B1: Atacicept (TACI (30–110)‐Fc) (Fc fusion, human, UniProt O14836 30-110, looked up)
chain: AMRSCPEEQYWDPLLGTCMSCKTICNHQSQRTCAAFCRSLSCRKEQGKFYDHLLRDCISCASICGQHPKQCAYFCENKLRS
notes: also called TACI‐Fc; dimeric atacicept; source: provided by Merck (Darmstadt, Germany); also in sera of human subjects after 150 mg subcutaneously
B2: Flag‐ACRP‐hAPRIL (ligand)
chain: not shown
notes: linker after the Flag tag; human ACRP30 (adiponectin), residues 16-108; linker; human APRIL, residues 105-250, starting at alanine 105 just after the furin cleavage site; also called Flag‐APRIL; ps1088; source: HEK293 cells, purified on anti‐Flag agarose

For one assay, the target named is T1, Flag‐mBAFF (mouse, UniProt Q9WU72 127-309).
T1 construct: linker after the Flag tag; mouse BAFF, residues 127-309; that it is Flag‐mBAFF (ps657) is surmised; Encoded with an HA signal before the Flag tag; also called recombinant mouse BAFF; mouse BAFF
Briefly: AlphaScreen or HTRF; AlphaLISA of atacicept diluted in mouse plasma with a matched pair of anti‐TACI antibodies (biotinylated ATA2, ATA3 acceptor beads), with or without recombinant mouse BAFF, with or without acid dissociation; conversely AlphaLISA of mouse BAFF in Baff−/− serum with 0, 100 or 2000 ng/ml atacicept. The note with it: both partners purified. (In general: In Alpha technology, singlet oxygen from a donor bead excites a nearby acceptor bead.)

Assay [1] deals with B1. Briefly: ELISA; plates coated with atacicept at 1 μg/ml in PBS, blocked, incubated with the indicated concentrations of Flag‐APRIL; revealed with anti‐Flag reagents. The note with it: both partners purified. (In general: In an ELISA, binding on a coated surface is turned into a signal by an enzyme label.)

T1 sequence (Q9WU72 other isoform, or with tags, fused parts or gaps): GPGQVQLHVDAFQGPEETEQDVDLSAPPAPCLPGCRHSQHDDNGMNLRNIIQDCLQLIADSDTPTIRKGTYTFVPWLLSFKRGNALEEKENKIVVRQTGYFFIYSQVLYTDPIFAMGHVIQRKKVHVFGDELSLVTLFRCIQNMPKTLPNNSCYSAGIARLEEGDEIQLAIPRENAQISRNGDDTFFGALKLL

Turning to B1, in the assay with Flag‐mBAFF, the binding result is on record as “binds”.
Regarding B2, in assay [1], the binding result was “binds”.

The values are drawn from publication PMC6811742, “No interactions between heparin and atacicept, an antagonist of B cell survival cytokines” (British Journal of Pharmacology, 2019).
